Laboratory results from PMC8412382.

Biological target: bovine albumin (BSA) (bovine, UniProt P02769 25-607)
Assay: SPR

Chain of bovine albumin (BSA) (P02769 25-607): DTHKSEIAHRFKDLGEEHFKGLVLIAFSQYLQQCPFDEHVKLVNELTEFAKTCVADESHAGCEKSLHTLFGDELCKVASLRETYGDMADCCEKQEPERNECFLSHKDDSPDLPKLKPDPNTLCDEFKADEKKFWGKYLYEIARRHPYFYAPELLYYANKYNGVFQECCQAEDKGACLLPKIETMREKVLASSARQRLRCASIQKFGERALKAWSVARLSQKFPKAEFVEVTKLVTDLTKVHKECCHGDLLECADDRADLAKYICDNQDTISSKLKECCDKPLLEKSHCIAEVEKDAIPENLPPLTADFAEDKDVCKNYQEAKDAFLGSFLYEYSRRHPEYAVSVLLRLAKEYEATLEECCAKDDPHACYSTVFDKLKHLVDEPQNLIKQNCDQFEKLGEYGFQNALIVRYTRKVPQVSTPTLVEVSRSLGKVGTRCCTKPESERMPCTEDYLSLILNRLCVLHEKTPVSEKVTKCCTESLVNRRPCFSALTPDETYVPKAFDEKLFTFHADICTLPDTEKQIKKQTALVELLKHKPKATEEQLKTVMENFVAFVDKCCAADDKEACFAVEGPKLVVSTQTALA

B1: N58 aptamer (SARS-CoV-2-N58) (ssDNA)
DNA: GCTGGATGTCACCGGATTGTCGGACATCGGATTGTCTGAGTCATATGACACATCCAGC
  binding result: no binding
